The source of these data is patent US20200109196A1 (MOGAM INSTITUTE FOR BIOMEDICAL RESEARCH, published 2020).

The target of experiment [1] is T1, recombinant human CEACAM-3/CD66d protein (Sino Biological; Cat. No. 11933-H08H) (human, UniProt P40198 35-155).
T1 construct: Bought protein; also called HCCM3
T1 sequence (looked up): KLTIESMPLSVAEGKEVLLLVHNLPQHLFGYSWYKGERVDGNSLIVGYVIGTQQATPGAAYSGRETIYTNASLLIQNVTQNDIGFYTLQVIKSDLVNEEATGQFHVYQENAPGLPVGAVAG
The experiment is described as follows: ELISA on coated antigen (0.25 µg/ml), HRP anti-human IgG Fc, OD450. The source says:
All of the recombinant human CEACAM-1/CD66a protein (R&D systems; Cat No. 2244-CM, HCCM1), recombinant human CEACAM-5/CD66e protein (R&D systems; Cat. No. 4128-CM, HCCM5), recombinant human CEACAM-6/CD66c protein (R&D systems; Cat. No. 3934-CM, HCCM6), recombinant human CEACAM-3/CD66d protein (Sino Biological; Cat. No. 11933-H08H, HCCM3), human B7-H5/Gi24/VISTA protein (Sino Biological; Cat. No. 13482-H08H, HVISTA), recombinant human CEACAM-1/CD66a protein Bulk (R&D systems; Cat. No. 2244-CM, HCCM1 (bulk)), recombinant human CEACAM1-N domain-Kappa protein (Mogam, in-house production, HCCM1-N domain-kappa), and BSA protein (2.5 μg each) were dissolved in 10 ml of PBS, respectively, and dispensed into a 96-well plate at 100 μl/well, which was incubated at 4° C. overnight. Thereafter, each well was treated with 300 μl of 1% (v/v) bovine serum albumin, and incubated at 37° C. for 1 hour.
The diluted antibodies were dispensed into each well coated with each protein at 100 μl/well, and incubated at 37° C. for 1 hour. Then, each well was washed 3 times with a washing buffer prepared by diluting 10 μl of Tween 20 (Sigma-Aldrich; Cat. No. P9146) in 990 μl of PBS. Thereafter, 2 μl of HRP-conjugated human anti-IgG-Fc antibody (anti-human IgG Fc, Sigma Cat. No. A0170) was diluted in 10 ml of PBS, added to the wells at 100 μl/well, and incubated for 1 hour.
(§1) After completion of the reaction, the wells were washed three times with the washing buffer, and 100 μl of TMB solution was added to each well to induce color development. Then, 100 μl of 2 M H₂SO₄ was added to each well to stop the reaction, and the absorbance was measured at a wavelength of 450 nm.
For orientation: An ELISA detects its analyte on a solid surface through an enzyme-linked reagent.

Experiment [2] concerns the target T2, recombinant human CEACAM-5/CD66e protein (R&D systems; Cat. No. 4128-CM) (human, UniProt P06731 35-685).
T2 construct: Bought protein; also called HCCM5
T2 sequence (looked up): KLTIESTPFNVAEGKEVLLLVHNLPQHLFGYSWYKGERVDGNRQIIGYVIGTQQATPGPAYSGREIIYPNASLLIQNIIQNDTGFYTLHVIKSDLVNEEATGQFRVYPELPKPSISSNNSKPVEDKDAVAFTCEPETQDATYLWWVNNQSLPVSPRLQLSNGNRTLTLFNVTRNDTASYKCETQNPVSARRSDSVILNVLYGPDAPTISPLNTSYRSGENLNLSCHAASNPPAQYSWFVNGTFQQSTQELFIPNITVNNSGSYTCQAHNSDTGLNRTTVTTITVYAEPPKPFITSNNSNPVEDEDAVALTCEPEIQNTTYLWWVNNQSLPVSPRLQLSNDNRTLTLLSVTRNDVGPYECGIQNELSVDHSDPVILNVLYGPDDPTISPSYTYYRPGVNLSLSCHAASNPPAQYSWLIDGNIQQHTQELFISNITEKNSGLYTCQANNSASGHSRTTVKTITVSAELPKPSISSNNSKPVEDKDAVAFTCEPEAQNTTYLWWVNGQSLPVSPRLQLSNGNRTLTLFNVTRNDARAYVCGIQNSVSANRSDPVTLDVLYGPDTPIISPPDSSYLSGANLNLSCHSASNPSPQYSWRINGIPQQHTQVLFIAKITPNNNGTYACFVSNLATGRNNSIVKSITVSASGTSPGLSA
The experiment is described as follows: ELISA on coated antigen (0.25 µg/ml), HRP anti-human IgG Fab, OD450.
Source text: (§2) All of the recombinant human CEACAM-1/CD66a protein (R&D systems; Cat. No. 2244-CM, HCCM1), recombinant human CEACAM-5/CD66e protein (R&D systems; Cat. No. 4128-CM, HCCM5), recombinant human CEACAM-6/CD66c protein (R&D systems; Cat. No. 3934-CM, HCCM6), recombinant human CEACAM-3/CD66d protein (Sino Biological; Cat. No. 11933-H08H, HCCM3), recombinant mouse PD-1 Fc chimeric protein (R&D systems; Cat. No. 1021-PD, mPD-1-Fc), recombinant CEACAM1-Fc (IgG4) protein (Mogam, in-house production, HCCM1-Fc), recombinant human CEACAM-1/CD66a protein Bulk (R&D systems; Cat. No. 2244-CM, HCCM1 (bulk)) and mouse CEACAM1/CD66a protein (Sino Biological; Cat. No. 50571-M08H, mouse CCM1) (2.5 μg each) were dissolved in 10 ml of PBS, respectively and dispensed into a 96-well plate (Nunc; Cat. No. 467679) at 100 μl/well, which was incubated overnight at 4° C. Thereafter, each well was treated with 300 μl of 1% (v/v) bovine serum albumin, which was incubated at 37° C. for 1 hour.
(§3) The diluted antibodies were dispensed into each well coated with each protein at 100 μl/well, which was incubated at 37° C. for 1 hour. Then, each well was washed 3 times with a washing buffer prepared by diluting 10 μl of Tween 20 (Sigma-Aldrich; Cat. No. P9146) in 990 μl of PBS. Thereafter, 2 μl of HRP-conjugated human anti-IgG-Fab antibody (anti-human IgG Fab; Sigma; Cat. No. A0293) was diluted in 10 ml of PBS, added to the wells at 100 μl/well, and incubated for 1 hour.
as §1

For experiment [3], the target named is T1, recombinant human CEACAM-3/CD66d …. The experiment is described as above.
Source text: as §2, §3, §1

Residue numbers refer to the chain shown, from its start.

B1: C15 (antibody, human IgG4 S228P, lambda, V domains shown)
VH: EVQLLESGGGLVQPGGSLRLSCAASGFTFSSYSMSWVRQAPGKGLEWVSSISPNGGNKYYADSVKGRFTISRDNSKNTLYLQMNSLGAEDTAVYYCAKDPYNIYQPLFDYWGQGTLVTVSS
VL: QSVLTQPLSASGTPGQRVTISCSGSSSNIGNNYVNWYQQLPGTAPKLLIYANSNRPSGVPDRFSGSKSGTSASLAISGLRSEEEADYYCGTWDASLSAYVFGGGTKLTVLG
As to B1, the binding result in experiment [1] and in experiment [2] was “no binding (tested: 3 µg/ml (single concentration))” each time.

B2: C18 (antibody, human IgG4 S228P, lambda, V domains shown)
VH: EVQLLESGGGLVQPGGSLRLSCAASGFTFSNYDMSWVRQAPGKGLEWVSGISHSSGSKYYADSVKGRFTISRDNSKNTLYLQMNSLRAEDTAVYYCARDPLPCLIPKCSYYYAMDVWGQGTLVTVSS
VL: QSVLTQPPSAPGTPGQRVTISCSGSSSNIGSNAVTWYQQLPGTAPKLLIYADSHRPSGVPDRFSGSKSGTSASLAISGLRSEDEADYYCGSWDDSLNAYVFGGGTKLTVLG
Consider B2, for which the binding result in experiment [1] and in experiment [2] was “no binding (tested: 3 µg/ml (single concentration))” in each case.

B3: C26 (antibody, human IgG4 S228P, lambda, V domains shown)
VH: EVQLLESGGGLVQPGGSLRLSCAASGFTFSGYDMSWVRQAPGKGLEWVSWISYGGGSIYYADSVKGRFTISRDNSKNTLYLQMNSLRAEDTAVYYCAKDRLPQKAVRHSYANGMDVWGQGTLVTVSS
VL: B2 VL with P11S, S31N, A33Y, S91A, D94Y, N97S, A98G
With B3, the binding result in experiment [3] and in experiment [2] was “no binding (tested: 3 µg/ml (single concentration))” each time.

B4: C17 (antibody, human IgG4 S228P, lambda, V domains shown)
VH: EVQLLESGGGLVQPGGSLRLSCAASGFTFSDYSMSWVRQAPGKGLEWVSVIYPDDGNTYYADSVKGRFTISRDNSKNTLYLQMNSLRAEDTAVYYCARGSIWWLSLIPSSYNAMDVWGQGTLVAVSS
VL: B1 VL with L8P, Y33A, N54H, E83D, T91A, S97N, A98G
For the molecule B4, in experiment [1], the binding result is recorded as “no binding (tested: 3 µg/ml (single concentration))”.

B5: C25 (antibody, human IgG4 S228P, lambda, V domains shown)
VH: EVQLLESGGGLVQPGGSLRLSCAASGFTFSNYAMSWVRQAPGKGLEWVSVISHGGGSIYYADSVKGRLTISRDNSKNTLYLQMNSLRAEDTAVYYCARDPTKGYAPTFDYWGQGTLVTVSS
VL: B1 VL with L8P, N35S, N52D, N54K, E83D, T91A, S97N, A98G
notes: Made in ExpiHEK293F cells, protein A purified. huIgG4 is the isotype control and anti-huIgG4 the detection reagent; the isotype is not otherwise stated; also called anti-CEACAM1 antibody C25
As for B5, the binding result in experiment [3] and in experiment [2] was “no binding (tested: 3 µg/ml (single concentration))” each time.

B6: C19 (antibody, human IgG4 S228P, lambda, V domains shown)
VH: EVQLLESGGGLVQPGGSLRLSCAASGFTFSGYAMSWVRQAPGKGLEWVSGIYHDGGSTYYADSVKGRFTISRDNSKNTLYLQMNSLRAEDTAVYYCARVTVLCTTYGCSSYDGMDVWGQGTLVTVSS
VL: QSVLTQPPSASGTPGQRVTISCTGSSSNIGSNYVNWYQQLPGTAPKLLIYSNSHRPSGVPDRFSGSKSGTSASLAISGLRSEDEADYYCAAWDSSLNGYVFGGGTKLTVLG
With B6, the binding result in experiment [3] was “no binding (tested: 3 µg/ml (single concentration))”.
